This series concerns ScNsrR wild type, [4Fe-4S] holo (Streptomyces coelicolor). Kind of series: EMSA. The settings on record: EMSA: 10 mM Tris, 54 mM KCl, 0.3% glycerol, 1.32 mM glutathione, pH 7.2, on ice ~10 min; 5% PAGE in 1x TBE. Background: In EMSA bound probe runs differently from free probe, usually more slowly.

As for hmpA1 promoter probe, the K half ([4Fe-4S] protein:DNA ratio) was < 2.

Values taken from paper PMC5411485.
